The values that follow are results of earlier work, collected in patent US20230279132A1, “TREATMENT OF B CELL MALIGNANCIES” (NOVARTIS AG, priority 2020, published 2023).

The test system of this data set is DLBCL. The settings on record: plus lenalidomide; relapsed or refractory DLBCL ineligible for transplants.

B1: tafasitamab-cxix: FDA-approved with lenalidomide for relapsed or refractory DLBCL (antibody, chains of the INN, looked up)
heavy: EVQLVESGGGLVKPGGSLKLSCAASGYTFTSYVMHWVRQAPGKGLEWIGYINPYNDGTKYNEKFQGRVTISSDKSISTAYMELSSLRSEDTAMYYCARGTYYYGTRVFDYWGQGTLVTVSSASTKGPSVFPLAPSSKSTSGGTAALGCLVKDYFPEPVTVSWNSGALTSGVHTFPAVLQSSGLYSLSSVVTVPSSSLGTQTYICNVNHKPSNTKVDKKVEPKSCDKTHTCPPCPAPELLGGPDVFLFPPKPKDTLMISRTPEVTCVVVDVSHEDPEVQFNWYVDGVEVHNAKTKPREEQFNSTFRVVSVLTVVHQDWLNGKEYKCKVSNKALPAPEEKTISKTKGQPREPQVYTLPPSREEMTKNQVSLTCLVKGFYPSDIAVEWESNGQPENNYKTTPPMLDSDGSFFLYSKLTVDKSRWQQGNVFSCSVMHEALHNHYTQKSLSLSPG
light: DIVMTQSPATLSLSPGERATLSCRSSKSLQNVNGNTYLYWFQQKPGQSPQLLIYRMSNLNSGVPDRFSGSGSGTEFTLTISSLEPEDFAVYYCMQHLEYPITFGAGTKLEIKRTVAAPSVFIFPPSDEQLKSGTASVVCLLNNFYPREAKVQWKVDNALQSGNSQESVTEQDSKDSTYSLSSTLTLSKADYEKHKVYACEVTHQGLSSPVTKSFNRGEC
Turning to B1, the CR is recorded as 37% and the ORR is recorded as 55%.
